Laboratory results as given in US8158376B2, “Bisubstrate fluorescent probe binding to protein kinases” (University of Tartu, priority 2006, dated 2012).

Legend:
PKBb = PKBb (Homo sapiens, UniProt P31751); test: Kinase selectivity panel, residual activity; type: biochemical; conditions: 1 μM compound, 50 μM ATP, 30° C.
Description: (§1) The assay of protein kinases was performed at 30° C. as described previously [Davies et al., Biochem. J. 351 (2000) 95; Murray et al., Biochem. J. 384 (2004) 477]. The results of the testing are expressed as the % of residual activity of the kinase in the presence of the inhibitor at 1 micromolar concentration.

PKBΔph = PKBΔph (Homo sapiens, UniProt P31749); test: Kinase selectivity panel, residual activity; type: biochemical; conditions: 1 μM compound, 5 μM ATP, 30° C.
Sequence of PKBΔph (P31749 whole entry, stated change not applied): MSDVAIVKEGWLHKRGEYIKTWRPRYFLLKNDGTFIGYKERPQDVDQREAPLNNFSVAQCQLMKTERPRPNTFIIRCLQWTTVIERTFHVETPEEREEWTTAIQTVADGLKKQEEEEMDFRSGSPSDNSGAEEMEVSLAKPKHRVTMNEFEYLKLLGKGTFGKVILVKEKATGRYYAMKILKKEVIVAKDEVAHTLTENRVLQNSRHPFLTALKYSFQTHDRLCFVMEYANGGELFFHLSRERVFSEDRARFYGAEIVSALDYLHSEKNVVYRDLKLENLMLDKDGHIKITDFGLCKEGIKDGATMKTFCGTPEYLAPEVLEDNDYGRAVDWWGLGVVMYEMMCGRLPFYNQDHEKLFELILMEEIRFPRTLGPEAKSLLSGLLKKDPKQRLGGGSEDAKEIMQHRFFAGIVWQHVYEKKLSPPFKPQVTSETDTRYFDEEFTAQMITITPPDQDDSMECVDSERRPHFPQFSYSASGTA
Description: as §1

PRK2 = PRK2 (Homo sapiens, UniProt Q16513); test: Kinase selectivity panel, residual activity; type: biochemical
Sequence of PRK2 (Q16513 whole entry): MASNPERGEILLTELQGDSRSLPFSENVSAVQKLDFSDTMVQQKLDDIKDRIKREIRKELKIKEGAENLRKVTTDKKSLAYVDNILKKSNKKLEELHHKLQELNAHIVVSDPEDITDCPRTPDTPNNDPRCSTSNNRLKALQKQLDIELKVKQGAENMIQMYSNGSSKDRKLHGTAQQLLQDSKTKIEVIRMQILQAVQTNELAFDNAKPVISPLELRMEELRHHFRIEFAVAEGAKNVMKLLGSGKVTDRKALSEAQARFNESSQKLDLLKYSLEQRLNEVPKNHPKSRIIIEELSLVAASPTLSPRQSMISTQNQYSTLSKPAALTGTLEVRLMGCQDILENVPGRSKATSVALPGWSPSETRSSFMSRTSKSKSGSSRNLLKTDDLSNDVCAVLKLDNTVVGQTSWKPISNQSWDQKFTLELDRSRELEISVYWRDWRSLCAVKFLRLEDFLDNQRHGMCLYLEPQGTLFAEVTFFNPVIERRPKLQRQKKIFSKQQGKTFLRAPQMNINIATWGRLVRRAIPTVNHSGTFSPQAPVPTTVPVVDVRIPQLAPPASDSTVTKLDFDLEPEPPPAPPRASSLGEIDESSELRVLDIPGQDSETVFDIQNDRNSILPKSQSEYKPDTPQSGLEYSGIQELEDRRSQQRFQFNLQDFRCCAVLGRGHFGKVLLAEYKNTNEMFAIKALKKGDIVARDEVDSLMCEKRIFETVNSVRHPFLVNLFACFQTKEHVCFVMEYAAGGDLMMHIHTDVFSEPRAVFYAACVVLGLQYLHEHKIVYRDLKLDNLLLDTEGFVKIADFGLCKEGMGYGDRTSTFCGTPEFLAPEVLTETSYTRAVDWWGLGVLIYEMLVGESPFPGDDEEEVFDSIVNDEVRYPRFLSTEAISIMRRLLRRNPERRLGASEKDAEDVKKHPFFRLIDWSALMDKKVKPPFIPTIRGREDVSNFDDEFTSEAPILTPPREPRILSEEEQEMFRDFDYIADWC
Description: as §1

cAPK Cα = cAPK Cα (Homo sapiens, UniProt P17612); test: High-throughput displacement of ARC-TAMRA from cAPK Cα, PHERAstar
Description: To determine the inhibition constant (Ki), 3-fold serial dilutions of a given inhibitor are performed analogously as for titration experiments. Before the measurement of fluorescence anisotropies the plate is rotated (400 rpm) for 10 minutes at 30° C.

PKA = PKA (Homo sapiens, UniProt P17612); test: Kinase selectivity panel; type: biochemical; conditions: inhibitor 1 μM; ATP 20 μM; read-out: residual activity (%) PKA
Method in brief: (§2)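 Incubation temperature for every kinase reaction was 30° C. The enzyme belonged to a panel covering 52 protein kinases.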

ROCK-II = ROCK-II (Homo sapiens, UniProt O75116); test: Kinase selectivity panel; type: biochemical; conditions: inhibitor 1 μM; ATP 20 μM; read-out: residual activity (%) ROCK-II
Sequence of ROCK-II (O75116 whole entry, species assumed): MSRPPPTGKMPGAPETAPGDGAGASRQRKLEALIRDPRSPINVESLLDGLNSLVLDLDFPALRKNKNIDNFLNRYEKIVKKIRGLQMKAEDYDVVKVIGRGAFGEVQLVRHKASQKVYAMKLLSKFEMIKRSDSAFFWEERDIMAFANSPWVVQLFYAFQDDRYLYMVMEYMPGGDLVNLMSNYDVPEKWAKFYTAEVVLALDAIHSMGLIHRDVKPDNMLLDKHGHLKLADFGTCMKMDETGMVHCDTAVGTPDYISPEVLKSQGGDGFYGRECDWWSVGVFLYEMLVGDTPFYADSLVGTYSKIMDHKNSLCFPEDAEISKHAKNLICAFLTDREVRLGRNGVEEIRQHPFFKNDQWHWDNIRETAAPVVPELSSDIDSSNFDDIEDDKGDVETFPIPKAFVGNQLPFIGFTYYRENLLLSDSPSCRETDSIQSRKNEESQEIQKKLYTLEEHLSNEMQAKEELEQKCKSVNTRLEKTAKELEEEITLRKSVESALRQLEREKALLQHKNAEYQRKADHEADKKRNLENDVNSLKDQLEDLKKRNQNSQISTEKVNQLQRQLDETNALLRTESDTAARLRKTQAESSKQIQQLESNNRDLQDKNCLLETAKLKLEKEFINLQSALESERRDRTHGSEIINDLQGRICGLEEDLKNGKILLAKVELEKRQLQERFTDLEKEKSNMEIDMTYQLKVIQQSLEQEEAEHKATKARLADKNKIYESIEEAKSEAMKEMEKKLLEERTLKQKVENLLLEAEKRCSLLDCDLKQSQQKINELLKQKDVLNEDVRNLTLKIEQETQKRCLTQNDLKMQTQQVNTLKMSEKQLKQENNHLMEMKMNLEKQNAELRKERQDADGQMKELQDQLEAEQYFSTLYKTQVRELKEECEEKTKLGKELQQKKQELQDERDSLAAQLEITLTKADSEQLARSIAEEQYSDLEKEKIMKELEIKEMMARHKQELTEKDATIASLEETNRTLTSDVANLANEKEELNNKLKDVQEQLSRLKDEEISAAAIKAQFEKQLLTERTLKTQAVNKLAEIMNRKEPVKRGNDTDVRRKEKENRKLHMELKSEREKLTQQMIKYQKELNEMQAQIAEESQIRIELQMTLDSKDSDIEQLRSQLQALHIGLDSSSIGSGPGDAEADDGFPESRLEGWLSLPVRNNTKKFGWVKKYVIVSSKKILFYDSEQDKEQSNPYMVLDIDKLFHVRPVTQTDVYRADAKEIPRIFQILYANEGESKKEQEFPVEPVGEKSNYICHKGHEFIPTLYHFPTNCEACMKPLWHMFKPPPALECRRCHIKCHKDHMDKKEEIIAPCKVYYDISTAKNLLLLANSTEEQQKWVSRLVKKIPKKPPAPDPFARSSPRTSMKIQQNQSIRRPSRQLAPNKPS
Method in brief: as §2

Sequence of PKBb (P31751 whole entry): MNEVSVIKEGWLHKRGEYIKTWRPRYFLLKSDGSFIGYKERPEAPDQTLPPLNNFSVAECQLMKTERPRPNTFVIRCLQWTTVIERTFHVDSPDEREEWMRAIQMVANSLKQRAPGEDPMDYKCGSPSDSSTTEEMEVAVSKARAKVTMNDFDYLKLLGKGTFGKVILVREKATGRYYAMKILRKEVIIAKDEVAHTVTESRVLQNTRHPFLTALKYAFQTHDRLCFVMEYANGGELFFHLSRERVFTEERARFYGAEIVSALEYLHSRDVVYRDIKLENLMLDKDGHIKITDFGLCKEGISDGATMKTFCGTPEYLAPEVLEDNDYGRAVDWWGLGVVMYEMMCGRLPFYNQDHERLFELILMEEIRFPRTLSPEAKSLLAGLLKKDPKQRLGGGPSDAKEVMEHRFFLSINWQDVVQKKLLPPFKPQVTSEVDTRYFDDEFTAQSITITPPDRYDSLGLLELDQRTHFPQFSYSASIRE

Structure (SMILES)	remaining activity at 1 µM (PKBb)	residual activity (PKBΔph)	remaining activity at 1 µM (PRK2)	Ki (cAPK Cα)	remaining activity at 1 µM (PKA)	remaining activity at 1 µM (ROCK-II)
N=C(N)NCCC[C@@H](NC(=O)[C@@H](CCCNC(=N)N)NC(=O)[C@@H](CCCNC(=N)N)NC(=O)[C@@H](CCCNC(=N)N)NC(=O)[C@@H](CCCNC(=N)N)NC(=O)[C@@H](CCCNC(=N)N)NC(=O)CCCCCNC(=O)[C@H]1O[C@@H](n2cnc3c(N)ncnc32)[C@H](O)[C@@H]1O)C(N)=O [Compound 5, AdcAhx(D-Arg)6-NH2]	≤ 3%	≤ 3%	≤ 3%	1.1 nM	–	–
N=C(N)NCCC[C@@H](NC(=O)[C@@H](CCCNC(=N)N)NC(=O)[C@@H](CCCNC(=N)N)NC(=O)[C@@H](CCCNC(=N)N)NC(=O)[C@@H](CCCNC(=N)N)NC(=O)[C@@H](CCCNC(=N)N)NC(=O)CCCCCNCCNS(=O)(=O)c1cccc2cnccc12)C(N)=O [Compound 26, H9-Hex(D-Arg)6-NH2]	–	–	–	–	< 10%	0%
